Experimental data taken from PMC8395244, “The Oxoglutarate Binding Site and Regulatory Mechanism Are Conserved in Ammonium Transporter Inhibitors GlnKs from Methanococcales” (International Journal of Molecular Sciences, 2021).

What was measured:
[1] = target: MtGlnK1 (GlnK isoform 1 from Methanothermococcus thermolithotrophicus), recombinant, N-terminally tagged (Methanothermococcus thermolithotrophicus); test: crystal structure; sitting drop at 18 °C; crystallised with or without 2 mM ATP, 2 mM 2OG and 2 mM MgCl2; solved by molecular replacement with PDB 2J9D
[2] = target: MtGlnK2 (GlnK isoform 2 from Methanothermococcus thermolithotrophicus), recombinant, N-terminally tagged (Methanothermococcus thermolithotrophicus); test: as above

| Substance | stoichiometry N [1] | stoichiometry N [2] |
| --- | --- | --- |
| MtGlnK1 (GlnK isoform 1 from Methanothermococcus thermolithotrophicus), recombinant, N-terminally tagged (natural protein) | 3 | – |
| MtGlnK2 (GlnK isoform 2 from Methanothermococcus thermolithotrophicus), recombinant, N-terminally tagged (natural protein) | – | 3 |
